Source: article PMC5432616, “Oligomeric State and Thermal Stability of Apo- and Holo- Human Ornithine δ-Aminotransferase” (The Protein Journal, 2017)

Assays:
[1] = substrate: O=C(O)CCC(=O)C(=O)O; experiment: purified protein; assay type: biochemical, Homo sapiens; conditions: co-substrate L-Orn, 60 nM enzyme, 50 mM Hepes, pH 8.0, 150 mM NaCl, 100 μM PLP, 25 °C
[2] = substrate: NCCC[C@H](N)C(=O)O; experiment: purified protein; conditions: co-substrate α-KG, 60 nM enzyme, 50 mM Hepes, pH 8.0, 150 mM NaCl, 100 μM PLP, 25 °C

B1: hOAT (human ornithine δ-aminotransferase) (Homo sapiens; R217A) (protein)
chain: TSVATKKTVQGPPTSDDIFEREYKYGAHNYHPLPVALERGKGIYLWDVEGRKYFDFLSSYSAVNQGHCHPKIVNALKSQVDKLTLTSRAFYNNVLGEYEEYITKLFNYHKVLPMNTGVEAGETACKLARKWGYTVKGIQKYKAKIVFAAGNFWGRTLSAISSSTDPTSYDGFGPFMPGFDIIPYNDLPALEAALQDPNVAAFMVEPIQGEAGVVVPDPGYLMGVRELCTRHQVLFIADEIQTGLARTGRWLAVDYENVRPDIVLLGKALSGGLYPVSAVLCDDDIMLTIKPGEHGSTYGGNPLGCRVAIAALEVLEEENLAENADKLGIILRNELMKLPSDVVTAVRGKGLLNAIVIKETKDWDAWKVCLRLRDNGLLAKPTHGDIIRFAPPLVIKEDELRESIEIINKTILSF
notes: untagged, pET43a, E. coli BL21(DE3)pLysS; DEAE and Superdex 200; tetramer in equilibrium with dimer, dimer is the functional unit
With B1 the Km [1] was 2.4 ± 0.1 mM, the kcat [1] was 38.1 ± 0.3 s⁻¹ and the Km [2] was 5.1 ± 0.3 mM. The kcat [2] was 38.4 ± 0.7 s⁻¹.
